Reference: US20120064001A1 (AFFITECH RESEARCH, published 2012)

Assays:
human VEGF-A [1] = target: T1, human VEGF-A (human, UniProt P15692-4 27-191, limits assumed); test: SPR (Biacore 3000); IgG over immobilized VEGF-A; 1:1 binding model; initial study; initial study; Biacore 3000; IgG over immobilized VEGF-A
T1 construct: Sources differ between assays (Dr. Brekken; R&D Systems); also called VEGF-biotin (biotinylated form in the receptor ELISA)

human VEGF-A [2] = target: T1, human VEGF-A; test: SPR (Biacore T100); IgG over 100 RU human VEGF-A on a CM5 chip; 1:1 fit; 25°C
Description: (§1) The background signal from a flow cell coated with BSA was subtracted from the binding curves. The binding affinity expressed as the KD was calculated by the 1:1 Fitting model using software belonging to the Biacore T100 machine.

human VEGF-A [3] = target: T1, human VEGF-A; test: SPR (Biacore T100); IgG over 100 RU human VEGF-A on a CM5 chip; 1:1 fit; 37°C
Description: as §1

human VEGF-A [4] = target: T1, human VEGF-A; test: SPR (Biacore T100); IgG over 100 RU human VEGF-A on a CM5 chip
Description: as §1

T1 sequence (P15692 other isoform, or with tags, fused parts or gaps limits assumed): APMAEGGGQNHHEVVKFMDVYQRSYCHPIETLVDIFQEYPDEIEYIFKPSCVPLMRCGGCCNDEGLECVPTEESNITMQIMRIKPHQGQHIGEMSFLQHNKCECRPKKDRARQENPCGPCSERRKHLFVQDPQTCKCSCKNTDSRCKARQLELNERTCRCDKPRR

Kd (human VEGF-A [1]): 6.7 nM
Kd (human VEGF-A [2]): 3.21 nM
Kd (human VEGF-A [3]): 5.22 nM
fold reduction of KD, 25°C versus 37°C (human VEGF-A [4]): < 2 fold
B1: r84/PGN311 full length fully human IgG (antibody, V domains shown)
VH: QVQLVQSGAEVKKPGASVKVSCKASGGTFSSYAISWVRQAPGQGLEWMGGFDPEDGETIYAQKFQGRVTMTEDTSTDTAYMELSSLRSEDTAVYYCATGRSMVRGVIIPFNGMDVWGQGTTVTVSS
VL: not shown
notes: Human IgG1/kappa (Lonza pCon IgG1a and kappa vectors, CHO K1SV cells); also called r84 IgG; r84/PGN311 IgG
